This note sets out measurements from patent US20260043020A1, “BINDING MEMBERS WITH ALTERED DIVERSITY SCAFFOLD DOMAINS” (priority 2016, published 2026).

Assay [1] concerns the target human Kv 1.3 (human) (UniProt P22001). The assay can be described thus: cell-based or functional assay.
Assay [2] has as its target trypsin. The assay can be described thus: monoclonal phage TRF ELISA. For orientation: An ELISA detects its analyte on a solid surface through an enzyme-linked reagent.
The target of assay [3] is trypsin. The assay can be described thus: phage TRF ELISA; GlyAla (Pro3Gly, Arg4Ala) mutant against the clone.
The target of assay [4] is trypsin. The assay can be described thus: flow cytometry of HEK293 cells 15 days post transfection, biotinylated trypsin/streptavidin-APC (FL4) against anti-Fc-PE (FL2). A general note: Flow cytometry measures light scatter and fluorescence of single cells or particles in a stream.
The target of assay [5] is trypsin. The assay can be described thus: flow cytometry, biotinylated trypsin with streptavidin-APC.
The target in assay [6] is β-galactosidase. The experiment in a line: monoclonal phage TRF ELISA on B-galactosidase.
Assay [7] deals with T1, human ASIC1a (human) (UniProt P78348).
T1 sequence (looked up): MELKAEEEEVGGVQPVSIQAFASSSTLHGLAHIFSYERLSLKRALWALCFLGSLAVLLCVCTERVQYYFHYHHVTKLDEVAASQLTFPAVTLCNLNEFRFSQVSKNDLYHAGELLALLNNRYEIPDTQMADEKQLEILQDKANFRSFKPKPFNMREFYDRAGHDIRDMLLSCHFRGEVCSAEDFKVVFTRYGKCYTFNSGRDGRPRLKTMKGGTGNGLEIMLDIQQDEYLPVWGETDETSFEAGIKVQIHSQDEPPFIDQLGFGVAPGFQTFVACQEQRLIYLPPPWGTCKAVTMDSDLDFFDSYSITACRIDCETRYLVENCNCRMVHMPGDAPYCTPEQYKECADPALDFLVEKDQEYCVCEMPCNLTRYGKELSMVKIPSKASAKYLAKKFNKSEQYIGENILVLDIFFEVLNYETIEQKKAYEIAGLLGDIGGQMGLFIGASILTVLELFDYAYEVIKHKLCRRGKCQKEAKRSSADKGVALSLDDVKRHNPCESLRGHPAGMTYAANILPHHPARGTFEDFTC
The experiment in a line: cell-based or functional assay.

human Kv 1.3 (human), sequence (P22001 whole entry): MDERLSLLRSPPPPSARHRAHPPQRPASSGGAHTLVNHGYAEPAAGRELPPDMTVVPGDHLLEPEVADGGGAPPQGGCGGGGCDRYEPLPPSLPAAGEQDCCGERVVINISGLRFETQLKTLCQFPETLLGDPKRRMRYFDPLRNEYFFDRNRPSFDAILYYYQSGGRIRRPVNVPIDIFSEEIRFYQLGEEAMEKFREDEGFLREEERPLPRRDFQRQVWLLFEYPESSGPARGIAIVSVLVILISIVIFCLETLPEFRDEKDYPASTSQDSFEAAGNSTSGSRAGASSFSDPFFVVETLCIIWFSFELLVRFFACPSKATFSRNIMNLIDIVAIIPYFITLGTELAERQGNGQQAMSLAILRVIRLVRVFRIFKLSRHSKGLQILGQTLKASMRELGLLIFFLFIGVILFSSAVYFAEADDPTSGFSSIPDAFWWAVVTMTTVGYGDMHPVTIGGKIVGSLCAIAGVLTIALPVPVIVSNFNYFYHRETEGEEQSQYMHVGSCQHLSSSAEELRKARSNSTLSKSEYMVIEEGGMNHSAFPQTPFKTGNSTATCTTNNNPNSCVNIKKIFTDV
β-galactosidase, sequence (P00722 2-1024): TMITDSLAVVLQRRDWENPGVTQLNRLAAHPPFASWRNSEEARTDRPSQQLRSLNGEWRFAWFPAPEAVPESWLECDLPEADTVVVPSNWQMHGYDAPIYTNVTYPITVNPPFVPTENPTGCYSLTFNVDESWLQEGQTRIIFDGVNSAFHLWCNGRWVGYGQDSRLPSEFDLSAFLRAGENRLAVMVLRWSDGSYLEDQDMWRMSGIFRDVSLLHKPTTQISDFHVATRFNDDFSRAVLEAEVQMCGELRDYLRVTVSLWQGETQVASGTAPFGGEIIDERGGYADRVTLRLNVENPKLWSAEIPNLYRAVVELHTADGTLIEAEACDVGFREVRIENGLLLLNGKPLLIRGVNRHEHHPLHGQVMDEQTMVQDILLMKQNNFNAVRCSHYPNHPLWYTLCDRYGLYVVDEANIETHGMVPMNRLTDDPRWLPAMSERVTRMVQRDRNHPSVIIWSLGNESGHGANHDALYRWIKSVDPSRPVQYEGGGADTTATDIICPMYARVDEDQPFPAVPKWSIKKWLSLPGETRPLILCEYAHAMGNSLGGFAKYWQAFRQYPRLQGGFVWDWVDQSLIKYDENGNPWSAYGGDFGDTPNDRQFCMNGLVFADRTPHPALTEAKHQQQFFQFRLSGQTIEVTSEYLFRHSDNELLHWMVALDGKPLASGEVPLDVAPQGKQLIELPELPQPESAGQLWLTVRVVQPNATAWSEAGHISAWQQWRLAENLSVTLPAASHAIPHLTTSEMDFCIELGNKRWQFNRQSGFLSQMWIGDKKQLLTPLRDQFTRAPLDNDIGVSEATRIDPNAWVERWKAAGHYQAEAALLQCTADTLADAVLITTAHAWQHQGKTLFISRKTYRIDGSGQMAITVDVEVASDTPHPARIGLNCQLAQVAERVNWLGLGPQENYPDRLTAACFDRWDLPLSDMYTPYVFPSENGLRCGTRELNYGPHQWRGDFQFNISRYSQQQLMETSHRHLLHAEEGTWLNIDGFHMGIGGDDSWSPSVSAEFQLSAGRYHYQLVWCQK

B1: KB_A07_Shk (antibody, V domains shown)
VH: EVQLVESGGGLVRPGGSLRLSCAASGFTFSSYAMSWVRQAPGKGLEWVSAISGSGGSTYYADSVKGRFTISRDNTKNSLYLQMTSLRADDTAFYYCVKDFGPGYGTGWFDYWGPGTLVTVSS
VL: NWYQQKPGKAPKLLIYAAGVRSCIDTIPKSRCTAFQCKHSMKYRLSFCRKTCGTCSRSGVPSRFSGSGSGTDFTLTISSLQPEDFATYYCQQGASPPYTFGQGTKVEIKR
In turn, B1 displayed an IC50, inhibition of huKv1.3 currents (QPatch, CHO cells) in assay [1] of 40 nM.

B2: KB_A07_Kaliotoxin (KTX) (antibody, V domains shown)
VH: B1 VH
VL: DIQMTQSPSSLSASVGDRVTITCRASQSISSYLNWYQQKPGKAPKLLIYAAGVGVEINVKCSGSPQCLKPCKDAGMRFGKCMNRKCHCTPKSRSGVPSRFSGSGSGTDFTLTISSLQPEDFATYYCQQGASPPYTFGQGTKVEIKR
The molecule B2 registered an IC50, inhibition of huKv1.3 currents (QPatch, CHO cells) in assay [1] of 900 nM.

B3: KB_A12_Shk (antibody, V domains shown)
VH: B1 VH
VL: NWYQQLPGKAPKLLIYAAGRRSCIDTIPKSRCTAFQCKHSMKYRLSFCRKTCGTCANSGVSDRFSAAKSGTSASLAINGLRSEDEADYYCAAWDDSLNGYVFGTGTKLTVLG
Consider B3, for which, in assay [1], the IC50, inhibition of huKv1.3 currents (QPatch, CHO cells) is 20 nM.

B4: KB_C09 (scFv, V domains shown)
VH: B1 VH
VL: AVNWYQQLPGKAPKLLIYAAGRCPRILMRCKQDSDCLAGCVCGPNGFCGGGSGVPDRFSGSIDSSSNSASLTISGLRAEDEADYYCQSYDSSNHWVFGGGTKLTVLG
In assay [2], B4 displayed a trypsin binding signal (FU) of 89400 FU. Also, the % reduction in binding signal in assay [3] was determined as 100%.

B5: KB_A07 scFv-Fc, membrane anchored on HEK293 cells (Fc fusion)
VH: B1 VH
VL: DIQMTQSPSSLSASVGDRVTITCRASQSISSYLNWYQQKPGKAPKLLIYAAGVCPRILMRCKQDSDCLAGCVCGPNGFCGSRSGVPSRFSGSGSGTDFTLTISSLQPEDFATYYCQQGASPPYTFGQGTKVEIKRT
In assay [4], B5 yielded a cells in Q1 (trypsin/streptavidin-APC positive, anti-Fc-PE negative) of 3.65%; a cells in Q2 (anti-Fc-PE positive and trypsin/streptavidin-APC positive) of 33.8%; a cells in Q3 (anti-Fc-PE positive, trypsin/streptavidin-APC negative) of 11.1%. Besides, the % of transfected HEK293 cells dual stained for Fc and trypsin in assay [5] was 34%.

B6: KB A12_B-gal_F07 (scFv, V domains shown)
VH: B1 VH
VL: AVNWYQQLPGKAPKLLIYAAGRCRTTANVRRHCKQDSDCLAGCVCGPNGFCGANSGVSDRFSAAKSGTSASLAINGLRSEDEADYYCAAWDDSLNGYVFGTGTKLTVLG
In assay [6], B6 gave a TRF signal of 246000.

B7: KB_C08 (scFv, V domains shown)
VH: B1 VH
VL: AVNWYQQLPGKAPKLLIYAAAVCPRILMRCKQDSDCLAGCVCGPNGFCGTRSGIPERFSGSKSGTSAFLAISGLRSEDEADYYCAAWDDSLSGVVFGGGTKLTVLG
For the molecule B7, the trypsin binding signal (FU) in assay [2] stood at 76800 FU. The % reduction in binding signal in assay [3] was 100%.

B8: KB_A07 IgG1 (EETI-II fusion, isotype control) (antibody, V domains shown)
VH: B1 VH
VL: YLNWYQQKPGKAPKLLIYAAGVCPRILMRCKQDSDCLAGCVCGPNGFCGSRSGVPSRFSGSGSGTDFTLTISSLQPEDFATYYCQQGASPPYTFGQGTKVEIKR
On to B8, for which the IC50, inhibition of huKv1.3 currents (QPatch, CHO cells) in assay [1] was > 10000 nM. Besides, the % ASIC1a current remaining, 6 µM KnotBody (QPatch, HEK293 cells) in assay [7] is 70.9%.

B9: KB_B11 (scFv, V domains shown)
VH: B1 VH
VL: TQPPSVSEAPRQRVTITCGSRPCPRILMRCKQDSDCLAGCVCGPNGFCGSHNWYQQLPGSSPTTVIYEDNQRPSGVPDRFSGSIDRSSNSASLTISGLKTEDEADYYCQSYDSSNHRVVFGGGTKLTVLG
In turn, B9 gave a trypsin binding signal (FU) in assay [2] of 10300 FU. This molecule registered a % reduction in binding signal in assay [3] of 100%.

B10: KB_A12 scFv-Fc, membrane anchored on HEK293 cells (Fc fusion)
VH: B1 VH
VL: QSVLTQPPSVSEAPRQRVTITCSGSSSNIGNNAVNWYQQLPGKAPKLLIYAAGRCPRILMRCKQDSDCLAGCVCGPNGFCGANSGVSDRFSAAKSGTSASLAINGLRSEDEADYYCAAWDDSLNGYVFGTGTKLTVLGQP
In assay [4], B10 displayed a cells in Q1 (trypsin/streptavidin-APC positive, anti-Fc-PE negative) of 1.54%; a cells in Q2 (anti-Fc-PE positive and trypsin/streptavidin-APC positive) of 11.2%; a cells in Q3 (anti-Fc-PE positive, trypsin/streptavidin-APC negative) of 3.78%. Further, the % of transfected HEK293 cells dual stained for Fc and trypsin in assay [5] came out at 11%.

B11: KB_A12 Kaliotoxin (KTX) fusion (antibody)
VH: B1 VH
VL: QSVLTQPPSVSEAPRQRVTITCSGSSSNIGNNAVNWYQQLPGKAPKLLIYAAGRGVEINVKCSGSPQCLKPCKDAGMRFGKCMNRKCHCTPKANSGVSDRFSAAKSGTSASLAINGLRSEDEADYYCAAWDDSLNGYVFGTGTKLTVLGQP
Regarding B11, the IC50, inhibition of huKv1.3 currents (QPatch, CHO cells) in assay [1] is > 10000 nM.

B12: KB_A07 MoKa-1 fusion (antibody, V domains shown)
VH: B1 VH
VL: DIQMTQSPSSLSASVGDRVTITCRASQSISSYLNWYQQKPGKAPKLLIYAAGVINVKCSLPQQCIKPCKDAGMRFGKCMNKKCRCYSSRSGVPSRFSGSGSGTDFTLTISSLQPEDFATYYCQQGASPPYTFGQGTKVEIKRT
For B12, the IC50, inhibition of huKv1.3 currents (QPatch, CHO cells) in assay [1] was > 10000 nM.

B13: KB_B10 (scFv, V domains shown)
VH: B1 VH
VL: QSVLTQLPSVSEAPRQRVTITCGRAMCPRILMRCKQDSDCLAGCVCGPNGFCGTGNWYQQHPGKAPKLIIFDVSKRPSGVPDRFSASKSGNTASLTISGLQAEDEADYYCNSYTSSNTWVFGGGTQLTVLG
In turn, B13 came in with a trypsin binding signal (FU) in assay [2] of 9270 FU. Further, the % reduction in binding signal in assay [3] was determined as 100%.

B14: KB_B12 (scFv, V domains shown)
VH: B1 VH
VL: TQPPSVSEAPRQRVTITCGERPCPRILMRCKQDSDCLAGCVCGPNGFCGANNWYQQLPGSSPTTVIYEDNQRPSGVPDRFSGSIDSSSNSASLTISGLKTEDEADYYCQSYDSSNQVFGGGTKVTVLG
Molecule B14 yielded a trypsin binding signal (FU) in assay [2] of 17400 FU. The molecule also yielded a % reduction in binding signal in assay [3] of 97%.

B15: KB_A12 IgG1 (EETI-II fusion, isotype control) (antibody, V domains shown)
VH: B1 VH
VL: AVNWYQQLPGKAPKLLIYAAGRCPRILMRCKQDSDCLAGCVCGPNGFCGANSGVSDRFSAAKSGTSASLAINGLRSEDEADYYCAAWDDSLNGYVFGTGTKLTVLG
B15: the IC50, inhibition of huKv1.3 currents (QPatch, CHO cells) in assay [1] was > 10000 nM. The molecule also registered a % ASIC1a current remaining, 3.3 µM KnotBody (QPatch, HEK293 cells) in assay [7] of 67.4%.

B16: KB_C10 (scFv, V domains shown)
VH: B1 VH
VL: AVNWYQQLPGKAPKLLIYAAGPCPRILMRCKQDSDCLAGCVCGPNGFCGADSGVSDRFSGSKSGTSASLAITGLQAEDEGDYYCAAWDDSLNGLVFGGGTKVTVLG
As for B16, the trypsin binding signal (FU) in assay [2] came out at 119000 FU. This molecule registered a % reduction in binding signal in assay [3] of 100%.
